Values joined by “and” are separate entries in the source; they are usually repeats but may differ in a detail not shown here. Equal values may be shown once. ± gives the standard deviation of the averaged measurements.
Key:
[1] = test system: Saccharomyces cerevisiae; test: protein stability index of tFT-peptide fusion in deletion strain of DOA10 (PSI (0-1 scale)); higher = more stable (slower turnover)
Procedure: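 MPS profiling in S. cerevisiae of two library types built from selected 12-aa C-degron peptides (IN1, IN2, LN1, LN3, VN2, R1-R5, W1-W3, Atg1 and Rpa12 C-termini): saturation mutagenesis libraries and C-terminal +1 capping libraries (13 aa). Each peptide is fused to the C-terminus of a sfGFP-mCherry timer, after a GGGS linker. Cells are FACS-sorted into 8 mCherry/sfGFP bins and sequenced. PSI runs from 0 (unstable) to 1 (stable), measured once in wild type and in the das1Δ or doa10Δ background.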

[2] = test system: Saccharomyces cerevisiae; test: protein stability index of tFT-peptide fusion in wild type (PSI (0-1 scale)); higher = more stable (slower turnover); conditions: genetic background: wild type
[3] = test system: Saccharomyces cerevisiae; test: protein stability index of tFT-peptide fusion in deletion strain of DAS1 (PSI (0-1 scale)); higher = more stable (slower turnover)
[4] = test system: Saccharomyces cerevisiae; test: protein stability index of tFT-peptide fusion (C-terminal peptide) (PSI (0-1 scale)); higher = more stable (slower turnover); conditions: genetic background: wild type; temperature: 30 C
[5] = test system: Saccharomyces cerevisiae; test: as above
Procedure: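 MPS profiling in S. cerevisiae of the tFT-X12 degron library: putative degron peptides plus stable controls, 12 aa, fused to the C-terminus of a sfGFP-mCherry timer. Cells are FACS-sorted into 8 mCherry/sfGFP bins and deep-sequenced. PSI runs from 0 (unstable) to 1 (stable). Backgrounds are wild type, das1Δ and doa10Δ at 30 °C, and wild type, das1Δ, cdc34-1 and cdc53-1 at 37 °C; 2-3 technical replicates each.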
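Throughout, for protein stability index of tFT-peptide fusion (C-terminal peptide): PSI is a weighted mean of sequencing reads over stability bins, variants kept only with over 10 reads, mCherry proximal and sfGFP distal, peptide attached via GGGS linker.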
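Throughout, for protein stability index of tFT-peptide fusion in deletion strain of DAS1: PSI is a weighted mean of each variant's read distribution over the sorted stability bins, computed only for variants having over 10 reads in total.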
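Throughout, for protein stability index of tFT-peptide fusion in deletion strain of DOA10: PSI per variant is the weighted mean of its sequencing read distribution over the sorted stability bins, counting only variants with over 10 reads summed across bins.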
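Throughout, for protein stability index of tFT-peptide fusion in wild type: PSI derived as read-weighted mean over the 8 sorting bins, only variants exceeding 10 total reads kept, mCherry placed adjacent to the peptide and sfGFP distal.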

Row | Sequence | protein stability index [2] | protein stability index [3] | other results
1 | AIFLPMCPLLLR | 0.278 |  | protein stability index [1]: 0.631
2 | AIHLPMCPLLLR | 0.278 |  | protein stability index [1]: 0.65
3 | AITGPMCPLLLR | 0.497 |  | protein stability index [1]: 0.666
4 | AITKPMCPLLLR | 0.458 |  | protein stability index [1]: 0.651
5 | AITLGMCPLLLR | 0.373 |  | protein stability index [1]: 0.661
6 | AITLNMCPLLLR | 0.261 |  | protein stability index [1]: 0.662
7 | AITLPMCPLFLR | 0.184 |  | protein stability index [1]: 0.67
8 | AITLPMCPLLER | 0.648 |  | protein stability index [1]: 0.741
9 | AITLPMCPLLLH | 0.502 |  | protein stability index [1]: 0.621
10 | AITLPMCPLLLN | 0.135 |  | protein stability index [1]: 0.189
11 | AITLPMCPLLLRN | 0.281 |  | protein stability index [1]: 0.659
12 | AITLPMCPYLLR | 0.545 |  | protein stability index [1]: 0.675
13 | AITLPMCVLLLR | 0.0936 |  | protein stability index [1]: 0.608
14 | AITLPMCWLLLR | 0.0817 |  | protein stability index [1]: 0.736
15 | AITLPQCPLLLR | 0.293 |  | protein stability index [1]: 0.661
16 | AITLPTCPLLLR | 0.289 |  | protein stability index [1]: 0.681
17 | AITLPYCPLLLR | 0.18 |  | protein stability index [1]: 0.666
18 | AITLQMCPLLLR | 0.3 |  | protein stability index [1]: 0.619
19 | AITLWMCPLLLR | 0.267 |  | protein stability index [1]: 0.611
20 | AITSPMCPLLLR | 0.491 |  | protein stability index [1]: 0.672
21 | KKHKKGQKQKIN | 0.113 and 0.11 | 0.66 and 0.611 | protein stability index [4]: 0.175 ± 0.039; protein stability index ([5]; genetic background: cdc34-1, temperature: 37 C): 0.535 ± 0.036; protein stability index ([5]; genetic background: cdc53-1, temperature: 37 C): 0.694 ± 0.011; protein stability index ([5]; genetic background: das1 deletion, temperature: 30 C): 0.622 ± 0.04; protein stability index ([5]; genetic background: das1 deletion, temperature: 37 C): 0.725 ± 0.021; protein stability index ([5]; genetic background: doa10 deletion, temperature: 30 C): 0.0638 ± 0.032; protein stability index ([5]; genetic background: wild type, temperature: 30 C): 0.0729 ± 0.029; protein stability index ([5]; genetic background: wild type, temperature: 37 C): 0.149 ± 0.11
22 | PSLAHSFWRVVG | 0.167 | 0.669 | 
23 | PSLAISFWRVVG | 0.127 | 0.633 | 
24 | PSMRWTFRYWVN | 0.0877 | 0.571 | 
25 | QDKRNHLIKLLN | 0.0816 | 0.592 | 
26 | QSLAASFWRVVG | 0.13 | 0.698 | 
27 | RAIQPLPVQFLN | 0.121 | 0.674 | 

Row | Sequence | protein stability index [2] | protein stability index [3] | other results
28 | RIIQPLPVQFLN | 0.0603 | 0.598 | 
29 | RLIEPLPVQFLN | 0.076 | 0.578 | 
30 | RLIPPLPVQFLN | 0.0667 | 0.576 | 
31 | RLIQPLLVQFLN | 0.0592 | 0.575 | 
32 | RLIQPLPAQFLN | 0.0736 | 0.602 | 
33 | RLIQPLPHQFLN | 0.0684 | 0.645 | 
34 | RLIQPLPNQFLN | 0.21 | 0.703 | 
35 | RLIQPLPPQFLN | 0.132 | 0.521 | 
36 | RLIQPLPVAFLN | 0.0928 | 0.552 | 
37 | RLIQPLPVQFLND | 0.652 | 0.671 | 
38 | RLIQPLPVQFLNK | 0.647 | 0.676 | 
39 | RLIQPLPVQFLNM | 0.584 | 0.655 | 
40 | RLIQPLPVQFLR | 0.668 | 0.58 | 
41 | RLIQPLPVQFLS | 0.156 | 0.606 | 
42 | RLIQPLPVQHLN | 0.1 | 0.564 | 
43 | RLIQPLPWQFLN | 0.0707 | 0.699 | 
44 | RLIQPRPVQFLN | 0.0515 | 0.613 | 
45 | RLIQWLPVQFLN | 0.071 | 0.613 | 
46 | RLIWPLPVQFLN | 0.0399 | 0.57 | 
47 | RRGAVGGWRLVG | 0.16 | 0.687 | 
48 | RTIQPLPVQFLN | 0.101 | 0.629 | 
49 | SDKRNHLIKLLN | 0.156 | 0.607 | 
50 | SRGAVGGWRLVG | 0.171 | 0.677 | 
51 | SRWRVGLWRGAS | 0.458 | 0.672 | 
52 | SSLAASFWRVVG | 0.16 | 0.692 | 
53 | TSMRWTFRYWVN | 0.0899 | 0.696 | 
54 | VRGAKGGWRLVG | 0.28 | 0.67 | 

Row | Sequence | protein stability index [2] | protein stability index [3] | other results
55 | VRGANGGWRLVG | 0.212 | 0.677 | 
56 | VRGAQGGWRLVG | 0.191 | 0.701 | 
57 | VRGAVAGWRLVG | 0.156 | 0.655 | 
58 | VRGAVGGMRLVG | 0.592 | 0.677 | 
59 | VRGAVGGWRCVG | 0.222 | 0.658 | 
60 | VRGAVGGWRFVG | 0.142 | 0.674 | 
61 | VRGAVGGWRHVG | 0.137 | 0.691 | 
62 | VRGAVGGWRLFG | 0.333 | 0.694 | 
63 | VRGAVGGWRLTG | 0.269 | 0.659 | 
64 | VRGAVGGWRLVGM | 0.621 | 0.685 | 
65 | VRGAVGGWRLVGQ | 0.701 | 0.667 | 
66 | VRGAVGGWRLVGS | 0.174 | 0.67 | 
67 | VRGAVGGWRLVW | 0.714 | 0.671 | 
68 | VRGAVGGWRNVG | 0.364 | 0.676 | 
69 | VRGAVGGYRLVG | 0.658 | 0.681 | 
70 | VRGAVGIWRLVG | 0.156 | 0.681 | 
71 | VRGAVMGWRLVG | 0.154 | 0.71 | 
72 | VRGAVPGWRLVG | 0.149 | 0.678 | 
73 | VRGAVTGWRLVG | 0.157 | 0.684 | 
74 | VRGHVGGWRLVG | 0.131 | 0.672 | 
75 | VRWAVGGWRLVG | 0.0824 | 0.685 | 
76 | VSLAASFWRVVG | 0.102 | 0.676 | 
77 | VYGAVGGWRLVG | 0.137 | 0.677 | 
78 | WTSCGYKFRTNN | 0.173 | 0.699 | 
79 | YKILRQKMNHQN | 0.196 | 0.668 | 
80 | YVVYLSCVACIN | 0.0134 | 0.0254 | 

Reference: the supplement of paper PMC10724198
